Source: paper doi:10.1101/2022.05.17.492379

T1: Esrrb (Mus musculus, UniProt Q61539 1-433)
T1 sequence: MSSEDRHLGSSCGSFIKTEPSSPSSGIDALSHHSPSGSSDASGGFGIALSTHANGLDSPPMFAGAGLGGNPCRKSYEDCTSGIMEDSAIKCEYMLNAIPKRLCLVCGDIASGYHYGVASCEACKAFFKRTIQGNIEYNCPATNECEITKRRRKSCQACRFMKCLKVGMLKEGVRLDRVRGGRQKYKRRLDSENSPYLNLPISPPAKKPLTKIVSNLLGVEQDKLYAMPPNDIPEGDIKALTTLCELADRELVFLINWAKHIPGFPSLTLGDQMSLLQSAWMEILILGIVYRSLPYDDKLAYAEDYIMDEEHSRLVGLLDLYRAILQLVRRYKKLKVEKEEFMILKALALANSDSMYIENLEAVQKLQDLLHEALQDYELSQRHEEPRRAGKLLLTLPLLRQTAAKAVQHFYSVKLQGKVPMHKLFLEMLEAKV

B1: Esrrb motif DNA (dsDNA)
DNA 1: GAGAGAGTCAAGGTCATGGCTCACT
DNA 2: AGTGAGCCATGACCTTGACTCTCTC
B2: Nr5a2 motif DNA (dsDNA)
DNA 1: GAGAGAGTCAAGGCCATGGCTCACT
DNA 2: AGTGAGCCATGGCCTTGACTCTCTC

Tests used:
[1] = biological target: T1, Esrrb; assay: fluorescence polarization
[2] = biological target: Nr5a2 (Mus musculus, UniProt P45448 1-560); assay: fluorescence polarization
Chain of Nr5a2 (P45448 whole entry): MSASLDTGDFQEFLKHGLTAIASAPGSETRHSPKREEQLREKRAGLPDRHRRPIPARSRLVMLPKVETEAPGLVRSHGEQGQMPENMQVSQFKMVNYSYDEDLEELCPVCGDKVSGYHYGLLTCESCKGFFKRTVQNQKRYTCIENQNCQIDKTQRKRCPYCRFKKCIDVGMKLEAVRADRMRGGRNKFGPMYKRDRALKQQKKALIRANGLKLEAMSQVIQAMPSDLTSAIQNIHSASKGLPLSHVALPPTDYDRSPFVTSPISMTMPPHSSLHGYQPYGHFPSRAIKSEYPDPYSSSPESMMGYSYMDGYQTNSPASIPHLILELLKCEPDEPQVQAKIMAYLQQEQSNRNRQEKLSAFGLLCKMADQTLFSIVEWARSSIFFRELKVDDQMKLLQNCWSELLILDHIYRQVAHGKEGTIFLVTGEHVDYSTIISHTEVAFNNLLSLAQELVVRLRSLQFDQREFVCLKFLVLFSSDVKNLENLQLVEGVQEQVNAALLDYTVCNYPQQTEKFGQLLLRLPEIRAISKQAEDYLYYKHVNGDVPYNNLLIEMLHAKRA

Binder | Kd [1] [nM] | Kd [2] [nM]
B1 | 8.56 ± 0.69 | 6.49 ± 0.35
B2 | 626 ± 133 | 5.62 ± 1
